Values joined by “and” are separate entries in the source; they are usually repeats but may differ in a detail not shown here. Identical values can stand only once.
Molecular target: the molecule itself
Assay: cross-linking; HeLa cells infected with C. trachomatis L2 (wild type or transformants induced at 16 hpi) treated with 0.25 mM DSS in HBSS pH 7.6 on ice at 4°C for at least 1 h; whole-cell lysates on 8% SDS-PAGE, immunoblot with anti-ClpC (endogenous) or anti-6×His (ectopic)

B1: endogenous ClpC of wild-type C. trachomatis serovar L2 (natural protein)
chain: not shown
notes: ClpC AAA+ ATPase of Chlamydia trachomatis serovar L2; monomer of the expected size 95 kDa; source: endogenous, wild-type Ctr L2 in infected HeLa cells, whole-cell lysate
stoichiometry N: 2 and 6

From article PMC10128030, “Molecular Characterization of the ClpC AAA+ ATPase in the Biology of Chlamydia trachomatis” (mBio, 2023)
